From doi:10.1101/2024.03.19.585385 (bioRxiv, 2024)

Target: T1, RNAP α subunit (αI) (T. thermophilus, UniProt Q5SHR6 1-315)
T1 sequence (looked up): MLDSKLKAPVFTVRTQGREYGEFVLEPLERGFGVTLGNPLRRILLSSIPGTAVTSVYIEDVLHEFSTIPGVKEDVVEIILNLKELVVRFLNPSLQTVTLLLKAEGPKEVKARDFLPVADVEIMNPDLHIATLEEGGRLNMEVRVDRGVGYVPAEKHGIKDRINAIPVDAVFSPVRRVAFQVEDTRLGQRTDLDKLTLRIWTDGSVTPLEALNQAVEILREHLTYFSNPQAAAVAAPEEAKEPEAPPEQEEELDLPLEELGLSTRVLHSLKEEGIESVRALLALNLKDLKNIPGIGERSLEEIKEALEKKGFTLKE
Test: cryo-EM structure

binding result: binds
B1: ribosomal protein S10 (NusE) (natural protein, T. thermophilus, UniProt Q5SHN7 1-105, looked up)
chain: MPKIRIKLRGFDHKTLDASAQKIVEAARRSGAQVSGPIPLPTRVRRFTVIRGPFKHKDSREHFELRTHNRLVDIINPNRKTIEQLMTLDLPTGVEIEIKTVGGGR
